Paper PMC5764400, “Biophysical insights from a single chain camelid antibody directed against the Disrupted-in-Schizophrenia 1 protein” (PLoS ONE, 2018)

B2: human DISC1 fragment comprising residues 691-836 (C region) (domain or fragment, UniProt Q9NRI5 691-836, looked up)
chain: WEADLEACRLLIQSLQLQEARGSLSVEDERQMDDLEGAAPPIPPRLHSEDKRKTPLKVLEEWKTHLIPSLHCAGGEQKEESYILSAELGEKCEDIGKKLLYLEDQLHTAIHSHDEDLIQSLRRELQMVKETLQAMILQLQPAKEAG
notes: also called DISC1 C region; source: E. coli BL21 AI (pESPRIT002), purified (Ni2+-NTA, SEC); not shown: His tag, N-terminal, kept

What was measured:
[1] = biological target: T1, anti-DISC1 human Fc-VHH antibody (VHH B5 fused to human Fc) (Lama glama); assay: far-Western, overlay or dot blot; western blot of lysates of NLF neuroblastoma cells transfected with human DISC1 or mouse Disc1, probed with the VHH-Fc (conditioned medium); conditions: partners not purified
T1 construct: as the VHH of m1; also called VHH-Fc; VHH–Fc antibody; not shown: Fc (human), C-terminal, kept

[2] = biological target: T1, anti-DISC1 human Fc-VHH antibody (VHH …); assay: far-Western, overlay or dot blot; western blot of purified His-tagged DISC1 truncation constructs probed with the VHH-Fc (conditioned medium) and an anti-human secondary antibody; conditions: one partner purified
[3] = biological target: B2; assay: SPR; Biacore T200, 25°C, PBS/0.05% Tween-20 pH 7.4; DISC1^691-836 amine-coupled to a CM5 chip (250 RU); VHH B5 19 nM to 1.5 uM injected in a single cycle; response levels against concentration fitted with Langmuir 1:1 model; conditions: both partners purified
[4] = biological target: B2; assay: SEC + SPR; stoichiometry of the DISC1^691-836 - VHH B5 complex as supported by the SEC and SPR results; conditions: both partners purified

B1: full length human DISC1 (natural protein, UniProt Q9NRI5 1-854, looked up)
chain: MPGGGPQGAPAAAGGGGVSHRAGSRDCLPPAACFRRRRLARRPGYMRSSTGPGIGFLSPAVGTLFRFPGGVSGEESHHSESRARQCGLDSRGLLVRSPVSKSAAAPTVTSVRGTSAHFGIQLRGGTRLPDRLSWPCGPGSAGWQQEFAAMDSSETLDASWEAACSDGARRVRAAGSLPSAELSSNSCSPGCGPEVPPTPPGSHSAFTSSFSFIRLSLGSAGERGEAEGCPPSREAESHCQSPQEMGAKAASLDGPHEDPRCLSRPFSLLATRVSADLAQAARNSSRPERDMHSLPDMDPGSSSSLDPSLAGCGGDGSSGSGDAHSWDTLLRKWEPVLRDCLLRNRRQMEVISLRLKLQKLQEDAVENDDYDKAETLQQRLEDLEQEKISLHFQLPSRQPALSSFLGHLAAQVQAALRRGATQQASGDDTHTPLRMEPRLLEPTAQDSLHVSITRRDWLLQEKQQLQKEIEALQARMFVLEAKDQQLRREIEEQEQQLQWQGCDLTPLVGQLSLGQLQEVSKALQDTLASAGQIPFHAEPPETIRSLQERIKSLNLSLKEITTKVCMSEKFCSTLRKKVNDIETQLPALLEAKMHAISGNHFWTAKDLTEEIRSLTSEREGLEGLLSKLLVLSSRNVKKLGSVKEDYNRLRREVEHQETAYETSVKENTMKYMETLKNKLCSCKCPLLGKVWEADLEACRLLIQSLQLQEARGSLSVEDERQMDDLEGAAPPIPPRLHSEDKRKTPLKVLEEWKTHLIPSLHCAGGEQKEESYILSAELGEKCEDIGKKLLYLEDQLHTAIHSHDEDLIQSLRRELQMVKETLQAMILQLQPAKEAGEREAAASCMTAGVHEAQA
notes: Disrupted-in-Schizophrenia 1 (DISC1), human, UniProtKB Q9NRI5; source: NLF human neuroblastoma cells, transfected, in lysate
B1: binds [1].

B2: binds [2].

B3: human DISC1 fragment 598-715 (domain or fragment, UniProt Q9NRI5 598-715, looked up)
chain: GNHFWTAKDLTEEIRSLTSEREGLEGLLSKLLVLSSRNVKKLGSVKEDYNRLRREVEHQETAYETSVKENTMKYMETLKNKLCSCKCPLLGKVWEADLEACRLLIQSLQLQEARGSLS
notes: same vector as m3; source: E. coli BL21 AI (pESPRIT002), purified (Ni2+-NTA, SEC)
B3: binds [2].

B4: anti-DISC1 VHH B5 antibody (VHH)
VHH: QVKLEESGGGLVQAGGSLRLSCAASGTLFSISVMGWYRQAPGMQRELVGSITDGGSTIYGDSVKGRFAISKDNAKRTIYLQMNSLKPEDTAVYYCNYRRLTSNYWGQGTQVTVSS
notes: Selected by phage display from an immunised llama; the homology model holds residues 1-120; PDB 3EZJ chain B is only the template of the homology model, not this VHH; also called clone B5; VHH domain B5; source: E. coli BL21 Rosetta (pET-22b, periplasm), purified (Ni2+-NTA, SEC)
For B4, the Kd [3] was 139 nM and the “stoichiometry N” value [4] was 1.

B5: human DISC1 fragment 480-721 (domain or fragment, UniProt Q9NRI5 480-721, looked up)
chain: EAKDQQLRREIEEQEQQLQWQGCDLTPLVGQLSLGQLQEVSKALQDTLASAGQIPFHAEPPETIRSLQERIKSLNLSLKEITTKVCMSEKFCSTLRKKVNDIETQLPALLEAKMHAISGNHFWTAKDLTEEIRSLTSEREGLEGLLSKLLVLSSRNVKKLGSVKEDYNRLRREVEHQETAYETSVKENTMKYMETLKNKLCSCKCPLLGKVWEADLEACRLLIQSLQLQEARGSLSVEDERQ
notes: Disrupted-in-Schizophrenia 1 (DISC1), human, UniProtKB Q9NRI5, residues 480-721; same vector as m3; also called DISC1^480-721; source: E. coli BL21 AI (pESPRIT002), purified (Ni2+-NTA, SEC)
B5: binds [2].
